The values below come from patent publication US20220119513A1 (ZOETIS SERVICES, published 2022).

Assay [1] concerns the target T1, TGFβ1 (R&D Systems).
T1 construct: also called TGFB1
Kind of assay: SPR full titration.

Assay [2] has as its target T2, TGFβ2 (R&D Systems).
T2 construct: also called TGFB2
T2 sequence (P61812 303-414, species assumed, looked up): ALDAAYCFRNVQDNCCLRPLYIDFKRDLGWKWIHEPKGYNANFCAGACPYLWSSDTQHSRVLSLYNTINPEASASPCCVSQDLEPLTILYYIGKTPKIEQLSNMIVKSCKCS
Kind of assay: SPR full titration.

Assay [3] deals with T3, TGFβ3 (R&D Systems) (Homo sapiens (Human), UniProt P10600 301-412, Active TGFβ3 is a disulfide-linked homodimer of this chain; one copy is given.).
T3 construct: also called TGFB3
T3 sequence: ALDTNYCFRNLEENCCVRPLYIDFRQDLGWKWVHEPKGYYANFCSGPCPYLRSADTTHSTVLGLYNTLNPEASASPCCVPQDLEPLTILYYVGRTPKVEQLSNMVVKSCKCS
Kind of assay: SPR full titration.

Assay [4] concerns the target T1, TGFβ1 (R&D Systems). Kind of assay: cell-based or functional assay.
Assay [5] addresses T2, TGFβ2 (R&D Systems). Briefly: cell-based or functional assay.
Assay [6] has as its target T3, TGFβ3 (R&D Systems). Kind of assay: cell-based or functional assay.
Assay [7] has as its target T1, TGFβ1 (R&D Systems). Briefly: single point SPR.

Numbering of substitutions follows the chain as printed. Numbers in names are those of the source.

T1 sequence (P01137 279-390): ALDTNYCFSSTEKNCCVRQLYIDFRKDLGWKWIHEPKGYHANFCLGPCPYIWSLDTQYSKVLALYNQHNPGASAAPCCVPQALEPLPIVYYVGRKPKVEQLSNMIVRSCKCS

B1: affinity matured HcLb 269 (antibody, V domains shown)
VH: EVQLVQSGAEVKKPGASVKVSCKTSGYTFMTYWMNWVRQAPGAGLDWMGQIFPAWGMTNYNEMFEGRVTLTADTSTSTAYMELSSLRAGDIAVYYCARGYGNYALDAMDYWGQGTLVTVSS
VL: DIVMTQTPPSLSVSPRETASISCRASESVDSYGNSFMHWYLQKPGQSPQLLIYLASNLESGVSDRFSGSGSGTDFTLRISRVEANDTGVYYCQQNDEDPLSFGQGTK
notes: full IgG; also called canHcLb/55SW/100DY/57SM/30IM + canHcLb/237ND/242TS
The Kd is the equilibrium constant for the complex coming apart. In the case of B1, the Kd with TGFβ1 (R&D Systems) [1] was determined as 4.4 nM; with TGFβ2 (R&D Systems) [2], 3.05 nM; with TGFβ3 (R&D Systems) [3], 0.99 nM.

B2: affinity matured HcLb 91 (antibody, V domains shown)
VH: B1 VH with M30I, M57S, Y100D
VL: DIVMTQTPPSLSVSPRETASISCRASESVDSYGNSFMHWYLQKPGQSPQLLIYLASNLESGVSDRFSGSGSGTDFTLRISRVEANDTGVYYCQQNNEDPLTFGQ
In the case of B2, the “pSmad-3, IC50” value stood at 2.16 nM with TGFβ1 (R&D Systems) [4], 4.43 nM with TGFβ2 (R&D Systems) [5] and 2.31 nM with TGFβ3 (R&D Systems) [6].

B3: affinity matured HcLb 190 (antibody, V domains shown)
VH: B1 VH with M30I, A54G, W55S, M57S
VL: B1 VL
Regarding B3, the “pSmad-3, IC50” value with TGFβ1 (R&D Systems) [4] worked out at 3.26 nM; with TGFβ2 (R&D Systems) [5], 2.77 nM; with TGFβ3 (R&D Systems) [6] it was 7.79 nM.

B4: affinity matured HcLb 73 (antibody, V domains shown)
VH: B1 VH with M30I, W55S, M57S
VL: B1 VL with S101T
B4: the entries for the “pSmad-3, IC50” value with TGFβ1 (R&D Systems) [4], with TGFβ2 (R&D Systems) [5] and with TGFβ3 (R&D Systems) [6] were 1.17 nM, 8.42 nM and 1.24 nM, respectively.

B5: affinity matured HcLb 187 (antibody, V domains shown)
VH: B1 VH with M30I, A54G, W55S, M57S
VL: B2 VL
Turning to B5, the “pSmad-3, IC50” value with TGFβ1 (R&D Systems) [4] stood at 0.82 nM; with TGFβ2 (R&D Systems) [5], 2.08 nM; with TGFβ3 (R&D Systems) [6], 8.61 nM.

B6: affinity matured HcLb 27 (antibody, V domains shown)
VH: B1 VH with M30I, W55S, M57S
VL: B2 VL
As to B6, the “pSmad-3, IC50” value with TGFβ1 (R&D Systems) [4] stood at 1.43 nM; with TGFβ2 (R&D Systems) [5], 8.24 nM; in the assay with TGFβ3 (R&D Systems) [6] it was 1.7 nM.

B7: affinity matured HcLb 270 (antibody, V domains shown)
VH: B1 VH
VL: B1 VL
notes: full IgG; also called canHcLb/55SW/100DY/57SV/30IM + canHcLb/237ND/242TS
In turn, B7 displayed a Kd with TGFβ3 (R&D Systems) [3] of 1.19 nM.

B8: affinity matured HcLb 266 (antibody, V domains shown)
VH: B1 VH with T28I, T31K
VL: B1 VL
notes: full IgG; also called canHcLb/55SW/100DY/30IM/31TK/28TI/57SM + canHcLb/237ND/242TS
Take B8: the Kd with TGFβ1 (R&D Systems) [1] was found to be 2.4 nM; with TGFβ2 (R&D Systems) [2] it was 2.9 nM; with TGFβ3 (R&D Systems) [3] it was 0.453 nM.

B9: affinity matured HcLb 267 (antibody, V domains shown)
VH: B1 VH with T28I, T31K, M57S
VL: B2 VL
notes: full IgG; constant regions not restated
With B9, the Kd with TGFβ1 (R&D Systems) [1] was found to be 5.1 nM; in the assay with TGFβ2 (R&D Systems) [2], 3.77 nM; with TGFβ3 (R&D Systems) [3], 1.01 nM.

B10: affinity matured HcLb 272 (antibody, V domains shown)
VH: B1 VH with T28K, T31F
VL: B1 VL
notes: full IgG; also called canHcLb/55SW/100DY/57SM/30IM/31TF/28TK + canHcLb/237ND/242TS
For B10, the figures for the Kd with TGFβ1 (R&D Systems) [1], with TGFβ2 (R&D Systems) [2] and in the assay with TGFβ3 (R&D Systems) [3] were 2.39 nM, 2.02 nM and 0.895 nM, respectively.

B11: affinity matured HcLb 268 (antibody, V domains shown)
VH: B1 VH with T28I, T31K
VL: B2 VL
notes: as for B9
As to B11, the Kd with TGFβ1 (R&D Systems) [1] worked out at 5.34 nM; in the assay with TGFβ2 (R&D Systems) [2] it was 3.96 nM; in the assay with TGFβ3 (R&D Systems) [3] it was 1.03 nM.

B12: affinity matured HcLb 205 (antibody, V domains shown)
VH: B1 VH with T28I, M30I, M57S
VL: B1 VL
notes: full IgG; also called canHcLb/S55W/D100Y/T28/I + canHcLb/237ND/242TS
In the case of B12, the Kd with TGFβ1 (R&D Systems) [1] is 1.78 nM; in the assay with TGFβ2 (R&D Systems) [2] it was 2.09 nM; with TGFβ3 (R&D Systems) [3], 0.005 nM.

B13: affinity matured HcLb 271 (antibody, V domains shown)
VH: B1 VH with T31F
VL: B1 VL
notes: full IgG; also called canHcLb/55SW/100DY/57SM/30IM/31TF + canHcLb/237ND/242TS
Turning to B13, the Kd stood at 2.3 nM in the assay with TGFβ1 (R&D Systems) [1], 1.28 nM in the assay with TGFβ2 (R&D Systems) [2] and 0.957 nM with TGFβ3 (R&D Systems) [3].

B14: affinity matured HcLb 264 (antibody, V domains shown)
VH: B1 VH with T28I, T31K, M57S
VL: B1 VL
notes: full IgG; also called canHcLb/55SW/100DY/30IM/31TK/28TI + canHcLb/237ND/242TS
Regarding B14, the values for the Kd with TGFβ1 (R&D Systems) [1], in the assay with TGFβ2 (R&D Systems) [2] and with TGFβ3 (R&D Systems) [3] were 2.69 nM, 3.89 nM and 3.75 nM, respectively.

B15: affinity matured HcLb 265 (antibody, V domains shown)
VH: B1 VH with T31K
VL: B1 VL
notes: full IgG; also called canHcLb/55SW/100DY/30IM/31TK/57SM + canHcLb/237ND/242TS
For the molecule B15, the Kd is 3.24 nM with TGFβ1 (R&D Systems) [1], 2.82 nM with TGFβ2 (R&D Systems) [2] and 0.7 nM with TGFβ3 (R&D Systems) [3].

B16: affinity matured HcLb 275 (antibody, V domains shown)
VH: B1 VH with T28K, M30W, T31F
VL: B1 VL
notes: full IgG; also called canHcLb/55SW/100DY/57SM/30IW/31TF/28TK + canHcLb/237ND/242TS
On to B16, for which the Kd with TGFβ1 (R&D Systems) [1] was 2.39 nM; with TGFβ2 (R&D Systems) [2], 2.91 nM; with TGFβ3 (R&D Systems) [3], 0.824 nM.

B17: Can-SL501-VH3 Y111V / Can-SL501-VL2 (antibody, V domains shown)
VH: EVQLVESGGDLVKPGGSLRLSCVASGFTFSSYGMHWVRQAPGKELEWVAVISYDGSIKYYADAVKGRFTISRDNAKNTLYLQMNSLRAEDTAVYYCARTGEYSGYDTDPQVSWGQGTTVTVSS
VL: EIVMTQSPGSLAGSAGESVSINCRASQGIGDDLGWYQQKPGERPKLLIYGTSTLQSGVPARFSSSGSGTDFTLTINNLQAEDVGDYYCLQDSNYPLTFGAGTK
With B17, the Kd with TGFβ1 (R&D Systems) [7] turned out to be 0.93 nM.

B18: Can-SL501-VH3 S112N / Can-SL501-VL2 (antibody, V domains shown)
VH: B17 VH with V111Y, S112N
VL: B17 VL
Molecule B18 yielded a Kd with TGFβ1 (R&D Systems) [7] of 3.4 nM.

B19: Can-SL501-VH3 S112T / Can-SL501-VL2 (antibody, V domains shown)
VH: B17 VH with V111Y, S112T
VL: B17 VL
B19 gave a dissociation constant (Kd) with TGFβ1 (R&D Systems) [7] of 3.51 nM.

B20: Can-SL501-VH3 S112A / Can-SL501-VL2 (antibody, V domains shown)
VH: B17 VH with V111Y, S112A
VL: B17 VL
On to B20, for which the Kd with TGFβ1 (R&D Systems) [7] amounted to 0.877 nM.

B21: Can-SL501-VH3 S112P / Can-SL501-VL2 (antibody, V domains shown)
VH: B17 VH with V111Y, S112P
VL: B17 VL
As to B21, the affinity in the assay with TGFβ1 (R&D Systems) [7], expressed as Kd, was 2.8 nM. Against the preceding molecule, the Kd is about 3.2-fold higher.

B22: Can-SL501-VH3 S112G / Can-SL501-VL2 (antibody, V domains shown)
VH: B17 VH with V111Y, S112G
VL: B17 VL
As to B22, the affinity in the assay with TGFβ1 (R&D Systems) [7], expressed as Kd, was 0.762 nM. This Kd lies about 3.7-fold lower than the previous one.

B23: Can-SL501-VH3 S112L / Can-SL501-VL2 (antibody, V domains shown)
VH: B17 VH with V111Y, S112L
VL: B17 VL
Take B23: the affinity with TGFβ1 (R&D Systems) [7], expressed as Kd, was 6.97 nM. This Kd lies about 9.1-fold higher than the previous one.
